Source: FireProtDB (doi:10.1021/bi0525223)

B1: Protein P-30, P22069 (parent)
chain: QDWLTFQKKHITNTRDVDCDNIMSTNLFHCKDKNTFIYSRPEPVKAICKGIIASKNVLTTSEFYLSDCNVTSRPCKYKLKKSTNKFCVTCENQAPVHFVGVGSC

Variants of: B1
Details: Lithobates pipiens, pH 5.5, sodium acetate 100 mM, reversible: Yes, structure 1ONC, whole UniProt chain shown; for ddG of mutation (higher = less stable) / denaturant midpoint (higher = more stable): 20 °C, GdnHCl, Fluorescence; for Tm / change of melting temperature, mutant - wild type (higher = more stable): Thermal, DSC

Variant | ddG of mutation (higher = less stable) [kcal/mol] | denaturant midpoint (higher = more stable) [M] | Tm [°C] | change of melting temperature, mutant - wild type (higher = more stable) [°C]
F28A | 5 | 2.9 | 78.1 | -10.4
F28T | 5.31 | 2.8 | 77.4 | -11.1
C87A C104A | 7.65 | 2.1 | 69.4 | -19.1
F36Y | 4.66 | 3 | 79.2 | -9.3
